Experimental data: patent US11584938B2, “Plant EPSPS mutant containing L195P and S247G mutations and encoding gene and use thereof” (GEVOTO LLC, priority 2017, dated 2023)

System: double knockout E. coli (EPSPS defective E. coli, EDCE)
Experiment: growth of EPSPS defective E. coli transformed by the EPSPS gene in M9 culture media containing different glyphosate concentrations
Type: cell-based, E. coli DH5α
Excerpt: A method for detecting the glyphosate resistance of the soybean EPSPS mutant G1 provided in Example 1 and the soybean EPSPS mutant G3 provided in Example 2 is as follows:
according to the sequence of the nucleic acid molecule provided in the example, synthesizing the encoding gene that encodes the soybean EPSPS mutant G1 or G3 using a chemical synthesis method, introducing enzyme sites (Pac1 and Sbf1) at two ends thereof, connecting to an expression vector (for example, a pADV5 vector, the structure of which is as shown in FIG. 15) that has undergone the same restriction enzyme digestion treatment under the action of ligase after restriction enzyme digestion, then transforming double knockout E. coli, picking positive colonies after verification, inoculating the positive colonies to M9 culture media containing different glyphosate concentrations for growth, and observing the growth situation of the E. coli.
The wild-type soybean EPSPS (with an amino acid sequence represented by SEQ ID NO: 2 and an encoding gene sequence represented by SEQ ID NO: 1) and the soybean EPSPS mutant G2 (with an amino acid sequence represented by SEQ ID NO: 6, and a corresponding encoding gene sequence represented by SEQ ID NO: 5) merely containing the mutation P114(101)S were taken as controls.
In the above, the M9 basal culture medium can be prepared by the following method:
5×M9 salt solution: 6.78 g of Na2HPO4, 3.0 g of KH2PO4, 0.5 g of NaCl, and 1.0 g of NH4Cl were weighed, added with ddH2O to 200 ml, and subjected to high-temperature and high-pressure sterilization treatment;
20% glucose: 20 g of glucose was weighed, added with 80 ml of ddH2O for dissolving, diluted to 100 ml, and subjected to filtration and sterilization treatment;
1.0 M MgSO4: 24.6 g of MgSO4-7H2O was weighed, dissolved with 80 ml of ddH2O, diluted to 100 ml, and subjected to sterilization treatment;
1.0 M CaCl2: 11.1 g of CaCl2 was weighed, dissolved with 80 ml of ddH2O, diluted to 100 ml, and subjected to sterilization treatment; and
1000 ml of the M9 basal culture media were prepared by adding ddH2O to 200 ml of 5×M9 salt solution, 20 ml of 20% glucose, 2 ml of 1.0 M MgSO4 and 0.1 ml of 1.0 M CaCl2 to make up to 1000 ml.
In the above, the E. coli used was double knockout E. coli, namely, EPSPS defective E. coli (E. coli DH5α with EPSPS gene and C-P Lyase gene being knocked out, named as EDCE, wherein for a preparation method thereof, reference can be made to a Chinese invention patent with the filing number CN2016103256926).
The glyphosate resistance of the soybean EPSPS mutant G4 provided in Example 3 and the soybean EPSPS mutant G5 provided in Example 4 was verified with reference to the detection method in Experiment Example 1.
The wild-type wheat EPSPS (with an amino acid sequence represented by SEQ ID NO: 14, and a corresponding encoding gene sequence represented by SEQ ID NO: 13) and the wheat EPSPS mutant T2 (with an amino acid sequence represented by SEQ ID NO: 18, and a corresponding encoding gene sequence represented by SEQ ID NO: 17) merely containing the mutation P118(101)S were taken as controls to verify the glyphosate resistance of the wheat EPSPS mutants T1 and T3 provided in Example 5 and Example 6, and reference can be made to Experiment Example 1 for the method.
A method for verifying the glyphosate resistance of the wheat EPSPS mutants T4, T5, and T6 provided in Examples 7-9 is the same as that in Experiment Example 3.
The wild-type rice EPSPS R0 (with an amino acid sequence represented by SEQ ID NO: 28, and a corresponding encoding gene sequence represented by SEQ ID NO: 27) and the rice EPSPS mutant R2 (with an amino acid sequence represented by SEQ ID NO: 32, and a corresponding encoding gene sequence represented by SEQ ID NO: 31) merely containing the mutation P116(101)S were taken as controls to verify the glyphosate resistance of the rice EPSPS mutants R1 and R3 provided in Examples 10 and 11, and reference can be made to Experiment Example 1 for the method. […]

[1] = culture media containing 0 mM glyphosate
[2] = culture media containing 1 mM glyphosate
[3] = culture media containing 5 mM glyphosate
[4] = culture media containing 10 mM glyphosate
[5] = culture media containing 20 mM glyphosate

B1: G0: wild-type soybean EPSPS, amino acid sequence SEQ ID NO: 2; control (protein)
chain: MAAAEKPSTAPEIVLEPIKDISGTITLPGSKSLSNRILLLAALSEGTTVVDNLLYSEDIHYMLGALRTLGLRVEDDQTTKQAIVEGCGGLFPTIKESKDEINLFLGNAGTAMRPLTAAVVAAGGNASYVLDGVPRMRERPIGDLVAGLKQLGADVDCFLGTNCPPVRVNGKGGLPGGKVKLSGSVSSQYLTALLMAAPLALGDVEIEIVDKLISVPYVEMTLKLMERFGVSVEHSGDWDKFLVHGGQKYKSPGNAFVEGDASSASYFLAGAAVTGGTITVNGCGTSSLQGDVKFAEVLEKMGAKVTWSENSVTVTGPPQDSSGQKVLQGIDVNMNKMPDVAMTLAVVALFANGQTTIRDVASWRVKETERMIAICTELRKLGATVEEGPDYCVITPPEKLNVTAIDTYDDHRMAMAFSLAACGDVPVTIKDPGCTRKTFPDYFEVLERFTRH
modifications: Glycine max
notes: control
With B1 the “growth of the E. coli transformed by the EPSPS” value (“growth … by the EPSPS” for short) [1] was “could grow”, the “growth … by the EPSPS” value [2] was “substantially could not grow” and the “growth … by the EPSPS” value [3] was “substantially could not grow”.

B2: G4: soybean EPSPS mutant, SEQ ID NO: 10, mutation S265(247)G (protein)
chain: MAAAEKPSTAPEIVLEPIKDISGTITLPGSKSLSNRILLLAALSEGTTVVDNLLYSEDIHYMLGALRTLGLRVEDDQTTKQAIVEGCGGLFPTIKESKDEINLFLGNAGTAMRPLTAAVVAAGGNASYVLDGVPRMRERPIGDLVAGLKQLGADVDCFLGTNCPPVRVNGKGGLPGGKVKLSGSVSSQYLTALLMAAPLALGDVEIEIVDKLISVPYVEMTLKLMERFGVSVEHSGDWDKFLVHGGQKYKSPGNAFVEGDASSAGYFLAGAAVTGGTITVNGCGTSSLQGDVKFAEVLEKMGAKVTWSENSVTVTGPPQDSSGQKVLQGIDVNMNKMPDVAMTLAVVALFANGQTTIRDVASWRVKETERMIAICTELRKLGATVEEGPDYCVITPPEKLNVTAIDTYDDHRMAMAFSLAACGDVPVTIKDPGCTRKTFPDYFEVLERFTRH
B2 was tested, and the “growth … by the EPSPS” value [1] was “could grow” and the “growth of the transformed E. coli compared with E. coli transformed by the control EPSPS named in the value” [3] was “superior to that of the E. coli transformed by G0”.

B3: G5: soybean EPSPS mutant, SEQ ID NO: 12, mutations S265(247)G and P114(101)S (protein)
chain: MAAAEKPSTAPEIVLEPIKDISGTITLPGSKSLSNRILLLAALSEGTTVVDNLLYSEDIHYMLGALRTLGLRVEDDQTTKQAIVEGCGGLFPTIKESKDEINLFLGNAGTAMRSLTAAVVAAGGNASYVLDGVPRMRERPIGDLVAGLKQLGADVDCFLGTNCPPVRVNGKGGLPGGKVKLSGSVSSQYLTALLMAAPLALGDVEIEIVDKLISVPYVEMTLKLMERFGVSVEHSGDWDKFLVHGGQKYKSPGNAFVEGDASSAGYFLAGAAVTGGTITVNGCGTSSLQGDVKFAEVLEKMGAKVTWSENSVTVTGPPQDSSGQKVLQGIDVNMNKMPDVAMTLAVVALFANGQTTIRDVASWRVKETERMIAICTELRKLGATVEEGPDYCVITPPEKLNVTAIDTYDDHRMAMAFSLAACGDVPVTIKDPGCTRKTFPDYFEVLERFTRH
B3 was tested, and the “growth … by the EPSPS” value [1] was “could grow”, the “growth … by the EPSPS” value [4] was “could grow” and the “growth of the transformed E. coli compared with E. coli transformed by the control EPSPS named in the value” [4] was “obviously superior to that of the E. coli transformed by G2”.

B4: G1: soybean EPSPS mutant, SEQ ID NO: 4, mutation L212(195)P (protein)
chain: MAAAEKPSTAPEIVLEPIKDISGTITLPGSKSLSNRILLLAALSEGTTVVDNLLYSEDIHYMLGALRTLGLRVEDDQTTKQAIVEGCGGLFPTIKESKDEINLFLGNAGTAMRPLTAAVVAAGGNASYVLDGVPRMRERPIGDLVAGLKQLGADVDCFLGTNCPPVRVNGKGGLPGGKVKLSGSVSSQYLTALLMAAPLALGDVEIEIVDKPISVPYVEMTLKLMERFGVSVEHSGDWDKFLVHGGQKYKSPGNAFVEGDASSASYFLAGAAVTGGTITVNGCGTSSLQGDVKFAEVLEKMGAKVTWSENSVTVTGPPQDSSGQKVLQGIDVNMNKMPDVAMTLAVVALFANGQTTIRDVASWRVKETERMIAICTELRKLGATVEEGPDYCVITPPEKLNVTAIDTYDDHRMAMAFSLAACGDVPVTIKDPGCTRKTFPDYFEVLERFTRH
For B4, the “growth … by the EPSPS” value [1] was “could grow” and the “growth of the transformed E. coli compared with E. coli transformed by the control EPSPS named in the value” [2] was “obviously superior to that of the E. coli transformed by G0”.

B5: G3: soybean EPSPS mutant, SEQ ID NO: 8, mutations L212(195)P and P114(101)S (protein)
chain: MAAAEKPSTAPEIVLEPIKDISGTITLPGSKSLSNRILLLAALSEGTTVVDNLLYSEDIHYMLGALRTLGLRVEDDQTTKQAIVEGCGGLFPTIKESKDEINLFLGNAGTAMRSLTAAVVAAGGNASYVLDGVPRMRERPIGDLVAGLKQLGADVDCFLGTNCPPVRVNGKGGLPGGKVKLSGSVSSQYLTALLMAAPLALGDVEIEIVDKPISVPYVEMTLKLMERFGVSVEHSGDWDKFLVHGGQKYKSPGNAFVEGDASSASYFLAGAAVTGGTITVNGCGTSSLQGDVKFAEVLEKMGAKVTWSENSVTVTGPPQDSSGQKVLQGIDVNMNKMPDVAMTLAVVALFANGQTTIRDVASWRVKETERMIAICTELRKLGATVEEGPDYCVITPPEKLNVTAIDTYDDHRMAMAFSLAACGDVPVTIKDPGCTRKTFPDYFEVLERFTRH
With B5 the “growth … by the EPSPS” value [1] was “could grow”, the “growth … by the EPSPS” value [5] was “could grow” and the “growth of the transformed E. coli compared with E. coli transformed by the control EPSPS named in the value” [5] was “superior to that of the E. coli transformed by the soybean EPSPS mutant G2”.

B6: G2: soybean EPSPS mutant, SEQ ID NO: 6, merely containing the mutation P114(101)S; control (protein)
chain: MAAAEKPSTAPEIVLEPIKDISGTITLPGSKSLSNRILLLAALSEGTTVVDNLLYSEDIHYMLGALRTLGLRVEDDQTTKQAIVEGCGGLFPTIKESKDEINLFLGNAGTAMRSLTAAVVAAGGNASYVLDGVPRMRERPIGDLVAGLKQLGADVDCFLGTNCPPVRVNGKGGLPGGKVKLSGSVSSQYLTALLMAAPLALGDVEIEIVDKLISVPYVEMTLKLMERFGVSVEHSGDWDKFLVHGGQKYKSPGNAFVEGDASSASYFLAGAAVTGGTITVNGCGTSSLQGDVKFAEVLEKMGAKVTWSENSVTVTGPPQDSSGQKVLQGIDVNMNKMPDVAMTLAVVALFANGQTTIRDVASWRVKETERMIAICTELRKLGATVEEGPDYCVITPPEKLNVTAIDTYDDHRMAMAFSLAACGDVPVTIKDPGCTRKTFPDYFEVLERFTRH
For B6, the “growth … by the EPSPS” value [1] was “could grow”, the “growth … by the EPSPS” value [4] was “could grow” and the “growth … by the EPSPS” value [5] was “could grow”.

B7: T0: wild-type wheat EPSPS, amino acid sequence SEQ ID NO: 14; control (protein, listed as Triticum aestivum)
chain: MATSVAAPAAPAGAEEVVLQPIREISGAVQLPGSKSLSNRILLLSALSEGTTVVDNLLNSEDVHYMLEALEALGLSVEADKVAKRAVVVGCGGRFPVEKDAKEEVKLFLGNAGTAMRPLTAAVVAAGGNATYVLDGVPRMRERPIGDLVVGLQQLGADVDCFLGTNCPPVRINGKGGLPGGKVKLSGSISSQYLSSLLMAAPLALEDVEIEIIDKLISVPYVEMTLKLMEHFGVTAEHSDSWDRFYIKGGQKYKSPGNAYVEGDASSASYFLAGAAITGGTVTVEGCGTTSLQGDVKFAEVLEMMGAKVTWTDTSVTVTGPPRQPFGRKHLKAVDVNMNKMPDVAMTLAVVALFADGPTAIRDVASWRVKETERMVAIRTELTKLGATVEEGPDYCIITPPEKLNITAIDTYDDHRMAMAFSLAACAEVPVTIRDPGCTRKTFPNYFDVLSTFVKN
In the case of B7, the “growth … by the EPSPS” value [1] is reported as “could grow” and the “growth … by the EPSPS” value [2] is reported as “substantially could not grow”.
